B1: GST-A3G (natural protein, human, UniProt Q9HC16 1-384, looked up)
chain: MKPHFRNTVERMYRDTFSYNFYNRPILSRRNTVWLCYEVKTKGPSRPPLDAKIFRGQVYSELKYHPEMRFFHWFSKWRKLHRDQEYEVTWYISWSPCTKCTRDMATFLAEDPKVTLTIFVARLYYFWDPDYQEALRSLCQKRDGPRATMKIMNYDEFQHCWSKFVYSQRELFEPWNNLPKYYILLHIMLGEILRHSMDPPTFTFNFNNEPWVRGRHETYLCYEVERMHNDTWVLLNQRRGFLCNQAPHKHGFLEGRHAELCFLDVIPFWKLDLDQDYRVTCFTSWSPCFSCAQEMAKFISKNKHVSLCIFTARIYDDQGRCQEGLRTLAEAGAKISIMTYSEFKHCWDTFVDHQGCPFQPWDGLDEHSQDLSGRLRAILQNQEN
notes: also called wt-A3G; GST-A3G (wt); source: E. coli BL21-DE3, purified on GSH-Sepharose
B2: GST-A3G-C97A (natural protein, human, UniProt Q9HC16 1-384, looked up)
chain: B1 chain with C97A
notes: source: E. coli BL21-DE3, purified on GSH-Sepharose
B3: GST-A3G-D128K (natural protein, human, UniProt Q9HC16 1-384, looked up)
chain: B1 chain with D128K
notes: as for B2
B4: GST-Vif (natural protein)
chain: not shown
notes: as for B2

Substitutions are numbered along the chain they refer to. Names and notes keep the numbering of the source.

The first test addresses T1, HA-wt-HDAC6 (in vitro translated) (human, UniProt Q9UBN7 1-1215).
T1 construct: also called HA-HDAC6; source: in vitro translated (rabbit-reticulocytes system), purified on anti-HA agarose; not shown: HA, N-terminal, kept
T1 sequence (looked up): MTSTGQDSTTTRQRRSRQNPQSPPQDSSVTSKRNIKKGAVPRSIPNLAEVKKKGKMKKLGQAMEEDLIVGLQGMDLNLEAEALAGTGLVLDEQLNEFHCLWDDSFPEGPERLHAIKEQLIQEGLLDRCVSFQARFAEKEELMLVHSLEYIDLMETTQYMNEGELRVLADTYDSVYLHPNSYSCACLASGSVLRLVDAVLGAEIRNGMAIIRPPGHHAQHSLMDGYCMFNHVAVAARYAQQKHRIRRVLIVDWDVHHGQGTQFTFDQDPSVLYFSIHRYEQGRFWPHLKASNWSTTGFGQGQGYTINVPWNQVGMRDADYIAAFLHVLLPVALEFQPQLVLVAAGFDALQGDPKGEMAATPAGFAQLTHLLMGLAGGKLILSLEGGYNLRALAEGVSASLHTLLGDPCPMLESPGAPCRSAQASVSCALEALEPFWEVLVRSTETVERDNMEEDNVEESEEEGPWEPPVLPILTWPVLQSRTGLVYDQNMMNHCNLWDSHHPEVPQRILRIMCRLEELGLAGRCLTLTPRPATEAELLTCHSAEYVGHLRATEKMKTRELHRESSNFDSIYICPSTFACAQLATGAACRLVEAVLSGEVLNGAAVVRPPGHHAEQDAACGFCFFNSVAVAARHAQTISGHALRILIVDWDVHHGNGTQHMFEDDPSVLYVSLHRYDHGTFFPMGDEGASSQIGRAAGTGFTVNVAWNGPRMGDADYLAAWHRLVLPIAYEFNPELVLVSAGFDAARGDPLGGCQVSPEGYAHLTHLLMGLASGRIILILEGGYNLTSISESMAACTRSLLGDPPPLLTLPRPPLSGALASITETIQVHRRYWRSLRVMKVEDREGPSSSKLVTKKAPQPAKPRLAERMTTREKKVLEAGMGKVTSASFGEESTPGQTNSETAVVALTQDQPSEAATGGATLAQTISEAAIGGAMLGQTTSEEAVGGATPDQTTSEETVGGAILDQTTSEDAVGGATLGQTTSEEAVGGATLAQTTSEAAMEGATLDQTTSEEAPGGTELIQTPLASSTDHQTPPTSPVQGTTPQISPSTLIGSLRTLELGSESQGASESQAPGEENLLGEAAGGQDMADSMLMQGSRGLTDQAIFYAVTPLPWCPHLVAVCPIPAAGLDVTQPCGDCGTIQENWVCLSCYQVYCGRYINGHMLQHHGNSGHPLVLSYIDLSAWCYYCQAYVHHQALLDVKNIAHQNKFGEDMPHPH
Description: pull-down; 3 μg GST fusion protein immobilised on glutathione-Sepharose beads, 2 μg purified in vitro translated HA-tagged protein, overnight in RIPA buffer at 4°C, three washes; anti-HA blot. Conditions: both partners purified.
Consider B1, for which the binding result is on record as “binds”.

As for B2, the binding result is given as “binds”. Still for that read-out and setting: as for B3, the entry is “binds”; as for B4, “binds”.

For the next test, the target named is T2, HA-dm-HDAC6 (in vitro translated) (human, UniProt Q9UBN7 1-1215, H216A | H611A).
T2 construct: also called dead-mutant (dm) HDAC6; H216A/H611A; not shown: HA, N-terminal, kept
T2 sequence (looked up): T1 sequence (looked up) with H216A, H611A
The description is as above. Conditions: both partners purified.
Turning to B1, the binding result is “binds”. Same read-out and setting: as for B2, the entry is “binds”. As for B3, the binding result is reported as “binds”.

(Values after article PMC4479245, “The HDAC6/APOBEC3G complex regulates HIV-1 infectiveness by inducing Vif autophagic degradation” (Retrovirology, 2015).)
